In test [1] the target is dog K12del retinol-binding protein (RBP) in serum (dog (endogenous in serum)). The test is described as follows: non-reducing SDS-PAGE and western blot; dog serum; non-reducing conditions; gels treated with beta-mercaptoethanol before transfer. In general terms: In western blotting, separated proteins are transferred to a membrane and probed.
The target in test [2] is dog K12del HA-tagged retinol-binding protein (^HARBP) (dog). The test is described as follows: non-reducing SDS-PAGE and western blot; conditioned media of transfected HeLa cells; no beta-mercaptoethanol; anti-HA, LI-COR.

Among the data in article PMC6546432 are stoichiometry N and dimer fraction values, retold here.

Substance “dog K12del retinol-binding protein (RBP) in serum (natural protein)” registered a stoichiometry N in test [1] of 2.
On to “dog K12del HA-tagged retinol-binding protein (^HARBP) (natural protein)”, for which the dimer fraction in test [2] is 0.89.

By stoichiometry N is commonly meant a count of units in the complex or per binding partner.
